From patent US20220402990

Experiments:
[1] = tested on: Activatable cytokine construct IFN-α-2b 1490DNI-hIgG4
[2] = tested on: IFN-α2b-1204DNIdl-hIgG4 with five amino acid residues added to the linker
[3] = tested on: Activatable cytokine construct ProC440 (N IFNα2b 0 1204DNIdL 0AA Fc)
[4] = tested on: Activatable cytokine construct IFN-α2b-1204DNIdl-hIgG4

In the case of “recombinant human urokinase-type plasminogen activator (uPA)”, the “protease cleavage, gel electrophoresis” value [1] is reported as “The results suggest that the proteases were effective at cleaving the cleavable moieties in the activatable cytokine constructs”, the “protease cleavage, gel electrophoresis” value [2] is reported as “The results suggest that the proteases were effective at cleaving the cleavable moieties in the activatable cytokine constructs” and the “protease cleavage, mass spectrometry” value [3] is reported as “Cleavage with uPa at the expected site in the CM was confirmed by Mass spectrometry analysis”. For the same substance, the “protease cleavage, gel electrophoresis” value [4] was “The results suggest that the proteases were effective at cleaving the cleavable moieties in the activatable cytokine constructs”.
